Experimental findings from the RNAGym collection of RNA variant scans (doi:10.7554/elife.80360) are described below.

To fix the notation:
B1: Hairpin Ribozyme (parent)
chain: GUCCUCUUUCACGUGCGCGUGAAAGAGAGAAGUGAACCAGAGAAACACACGUUGUGGUAUAUUACCUGGUA

In the data set the parent is B1. Nature of the data set: self-cleavage, relative activity (ratio to wild type); higher = more cleavage; co-transcriptional.
Turning to GUCCUCUUUCACGUGCGCGUGAAAGAGAGAAGUGAACCAGAGAAACACACGGUGGGGUAUAUUACCUGGUA [U52G U55G], the self-cleavage is 0.398.

GUCCUCUUUCACGUGCGCGUGAAAGAGAGAAAUGAACCAGAGAAACACACGUUGUGGUAAAUUACCUGGUA [G32A U60A]: the self-cleavage was 0.191.

In the case of GUCCUCUUUCACGUGAGCGUGAAAGAGAGAAGUGAACCAGAGAAACACACGUUGUGGGAUAUUACCUGGUA [C16A U58G], the self-cleavage came out at 0.736.

In the case of GUCCUCUUUCACGUGCGCGUGAAAGAGAGAAGUGAACCAGCGAAACACACGUUGUGGCAUAUUACCUGGUA [A41C U58C], the self-cleavage was 1.2.

As for GUCCUCUUUCACGUGCGCGUGAAAGAGAGAAGUGAACCAGAGAAACACACGUUGUGGUAUUUUACCAGGUA [A61U U67A], the self-cleavage stood at 0.178.

With GUACUCUUUCACGUGCGCGUGAAAGAGAGAAGUGAACCACAGAAACACACGUUGUGGUAUAUUACCUGGUA [C3A G40C], the self-cleavage turned out to be 0.0884.

On to GUCCUCUUUCACGUGCGCGUGAAAGAAAGAAGUGAACCAGAGAAACACACGUUGUGGUAUAUGACCUGGUA [G27A U63G], for which the self-cleavage was 0.134.

In the case of GUCCUCUUUCACGUGCACGUGAAAGAGAGAAGUGAACCAGAGAAACAAACGUUGUGGUAUAUUACCUGGUA [G17A C48A], the self-cleavage worked out at 0.145.

In the case of GUCCUUUUUCACGUGCGCGUGAAAAAGAGAAGUGAACCAGAGAAACACACGUUGUGGUAUAUUACCUGGUA [C6U G25A], the self-cleavage is 0.751.

Take GUCCUCUUUCACGAGCGCGUGAAAGAGAGAAGUGAACCAGAGAAACACACGUUGUGGUGUAUUACCUGGUA [U14A A59G]: the self-cleavage turned out to be 0.0952.

Turning to GUCCUCUUUCACGUGCGGGUGAAAGAGAGAAGUGAACCAGAGAAACACACGUUGUGGUAAAUUACCUGGUA [C18G U60A], the self-cleavage turned out to be 0.9.

As for GUCCUCUUUCAUGUUCGCGUGAAAGAGAGAAGUGAACCAGAGAAACACACGUUGUGGUAUAUUACCUGGUA [C12U G15U], the self-cleavage is 1.08.

For GUCCUCUUUCACGUGCGCGUGACAGAGUGAAGUGAACCAGAGAAACACACGUUGUGGUAUAUUACCUGGUA [A23C A28U], the self-cleavage was found to be 0.501.

GUCCUCUUUCACGUGCGCGUGAAAGAAAGAAGUGAACCAGAGAAUCACACGUUGUGGUAUAUUACCUGGUA [G27A A45U]: the self-cleavage is 0.201.

Take GUCCUCUUUCACGUGAUCGUGAAAGAGAGAAGUGAACCAGAGAAACACACGUUGUGGUAUAUUACCUGGUA [C16A G17U]: the self-cleavage came out at 0.944.

GUCCUCUUUCACGUGCGCGUGAAAGAGAGAAGUGAACUAGAGAAACACACGUUGUGGUAUAUGACCUGGUA [C38U U63G]: the self-cleavage was 0.186.

Take GUCCUCUUACACGUGCGCGUGAAAGAGAGGAGUGAACCAGAGAAACACACGUUGUGGUAUAUUACCUGGUA [U9A A30G]: the self-cleavage is 0.148.

In the case of GUCCUCUGUCACGUGCGCGUGAAAGAGAGAAGUGAACCAGAGAAACACACGUUGUGGUAUAUUACCUGAUA [U8G G69A], the self-cleavage was determined as 0.282.

As to GUCCUCUUUCACGUGCGCGUGAAAGAGAUAAGUGAACCAGAGAAAUACACGUUGUGGUAUAUUACCUGGUA [G29U C46U], the self-cleavage turned out to be 0.124.

As for GUCCUCUUUCACGUGCGCGUGAAAGAGAGAAGUGAACCAGAGAAACACACGUUGUGGUAUGUUCCCUGGUA [A61G A64C], the self-cleavage came to 0.109.

GUCCUCUUUCACGUGCGCGUGAAAGAGGGAAGUGAACCAGAGAAAAACACGUUGUGGUAUAUUACCUGGUA [A28G C46A]: the self-cleavage worked out at 0.199.

Turning to GUCCUCUUUCACGUGCGCGUGAAAGAGAGAAGUGAACCAGGGAAACACACGUUGUGGUAUUUUACCUGGUA [A41G A61U], the self-cleavage was 0.195.

For the variant GUCCUCUUUCACGUGCGCGUGAAAGAGAGAAGUGAACCAGAGAAUCACACGAUGUGGUAUAUUACCUGGUA [A45U U52A], the self-cleavage came out at 0.122.

Take GUCCUCUUUCACGUGCGCGUGUAAGAGAGAAGUGAACCAGAGAAACACAGGUUGUGGUAUAUUACCUGGUA [A22U C50G]: the self-cleavage stood at 0.223.

Regarding GUCCUCUUUCAUGUGCGCGUGAAAGAGAGAAGUGAACCCGAGAAACACACGUUGUGGUAUAUUACCUGGUA [C12U A39C], the self-cleavage was 0.407.

Consider GUCCUCUUUCACGUGCGCGUGAAAGAGAGAAGUGAGCCAGAGAAACACAAGUUGUGGUAUAUUACCUGGUA [A36G C50A], for which the self-cleavage is 0.34.

With GUCCUCUUUCACGUGCGCGUGAAAGAGAGAAUUGAACCAGAGAAACACAAGUUGUGGUAUAUUACCUGGUA [G32U C50A], the self-cleavage worked out at 0.0903.

As to GCCCUCUUUCACUUGCGCGUGAAAGAGAGAAGUGAACCAGAGAAACACACGUUGUGGUAUAUUACCUGGUA [U2C G13U], the self-cleavage stood at 0.121.

GUCCUCUUUCACGUGCGCUUGAAAGAGAGAAGUGAACCAGAGAAACACACGUUGUGGUAUAUUACCUGGAA [G19U U70A]: the self-cleavage amounted to 0.773.

For GUCCUCUUUCACGUGCGCGUGAAAGAGAGAAGUGAUCCAGAGAUACACACGUUGUGGUAUAUUACCUGGUA [A36U A44U], the self-cleavage worked out at 0.285.

Regarding GUCCUCUUUCACGUGCGCGUGAAAGAUAGAAGUGAACCAGAGGAACACACGUUGUGGUAUAUUACCUGGUA [G27U A43G], the self-cleavage was 0.169.

Consider GUCCUCUUUCACGCGCGCGUGAAAGAGAGAAGUGAACCAGAGAAACACACGUUGUGGUAUACUACCUGGUA [U14C U62C], for which the self-cleavage stood at 0.0439.

For the variant GUCCUCUUUCACGUGCGGGUGAAAGAGAGAAGUGAACCAGAGAAACACACGUUGUGGUAUAUUACCUGGUU [C18G A71U], the self-cleavage is 0.698.

As to GUCCUCUUUCACGUGCGCGUGAAAGACAGAAAUGAACCAGAGAAACACACGUUGUGGUAUAUUACCUGGUA [G27C G32A], the self-cleavage was 0.191.

As to GUCCUCUUUCACGUGCGCGUGAACGAGAGAAGUGAACCAGAGAAACACAGGUUGUGGUAUAUUACCUGGUA [A24C C50G], the self-cleavage stood at 0.326.

As for GUCCUCUUUCACGUGCGCGUGAAAGAGAGAAGUGAACCAGAGAAACAUACAUUGUGGUAUAUUACCUGGUA [C48U G51A], the self-cleavage was determined as 0.082.

In the case of GUCCUCUUUCACGUGCGCGUGAAAGAGAGAAGUGAACCAGACAAACACACGUUGUGGUAUAUUACCUGAUA [G42C G69A], the self-cleavage stood at 0.0872.

With GUCCUCUUUCACGUGCGCGUGAUAGAGAGAAGCGAACCAGAGAAACACACGUUGUGGUAUAUUACCUGGUA [A23U U33C], the self-cleavage came out at 0.144.
